Tests used:
Test in all cases: EMSA
[1] = tested on: XRCC1 219-415 (CDB) (Homo sapiens); settings: EMSA: 5 nM DNA, 12 mM Tris pH 8.0, 100 mM NaCl, 20 mM KCl, 3 mM MgCl2, 1 mM EDTA, 0.1% CHAPS, 10 mM 2-mercaptoethanol, 8.5% glycerol, BSA (0.02 mg/mL), room …
[2] = tested on: XRCC1 219-633 (Homo sapiens); settings: EMSA: 5 nM DNA, 12 mM Tris pH 8.0, 100 mM NaCl, 20 mM KCl, 3 mM MgCl2, 1 mM EDTA, 0.1% CHAPS, 10 mM 2-mercaptoethanol, 8.5% glycerol, BSA (0.02 mg/mL), room …
[3] = tested on: XRCC1 219-633 P1/3-YFP-NLS (Homo sapiens); settings: 2 uM protein; EMSA: 5 nM DNA, 12 mM Tris pH 8.0, 100 mM NaCl, 20 mM KCl, 3 mM MgCl2, 1 mM EDTA, 0.1% CHAPS, 10 mM 2-mercaptoethanol, 8.5% glycerol, BSA (0.02 mg/mL), room …
[4] = tested on: XRCC1 full length (Homo sapiens); settings: EMSA: 5 nM DNA, 12 mM Tris pH 8.0, 100 mM NaCl, 20 mM KCl, 3 mM MgCl2, 1 mM EDTA, 0.1% CHAPS, 10 mM 2-mercaptoethanol, 8.5% glycerol, BSA (0.02 mg/mL), room …

## 39 bp duplex
[1]
  Kd: 670 nM
[2]
  Kd: 700 nM
[3]
  binding signal (% of wild type): 6
[4]
  Kd: 620 nM
